Literature values in PMC6551275.

Biological target: UBQLN2 UBA (Homo sapiens) (UniProt Q9UHD9)
Sequence (Q9UHD9 578-624): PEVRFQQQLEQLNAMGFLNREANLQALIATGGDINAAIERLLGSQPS

Chain of UBQLN2 UBL (Q9UHD9 33-107): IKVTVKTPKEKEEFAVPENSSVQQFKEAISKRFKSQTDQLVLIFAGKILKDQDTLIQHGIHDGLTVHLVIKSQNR

Substance: UBQLN2 UBL (from UniProt Q9UHD9)
- Kd: 175 µM
